According to patent US7026443:

B1: HPV18 E6 peptide … (position 77) (peptide)
peptide: ELRHYSDSV
modifications: not checked
B2: HPV18 E1 peptide … (position 497, 10 amino acids) (peptide)
peptide: FIHFIQGAVI
modifications: not checked
B3: HPV18 E1 peptide … (position 500, 10 amino acids) (peptide)
peptide: FIQGAVISFV
modifications: not checked
B4: HPV18 E1 peptide … (position 11, 10 amino acids) (peptide)
peptide: GTGCNGWFYV
modifications: not checked
B5: HPV18 E6 51 … (peptide)
peptide: DLFVVYRDSI
modifications: not checked
B6: HPV18 E6 peptide … (position 92) (peptide)
peptide: KLTNTGLYNL
modifications: not checked
B7: HPV18 E6 88 … (peptide)
peptide: DTLEKLTNT
modifications: not checked
B8: HPV18 E6 20 … (peptide)
peptide: ELNTSLQDI
modifications: not checked
B9: HPV18 E6 peptide … (position 92) (peptide)
peptide: KLTNTGLYNLL
modifications: not checked
B10: HPV16 E1 544 … (peptide)
peptide: LVSMDVKHR
modifications: not checked
B11: HPV16 E1 191 … (peptide)
peptide: LTNILNVLK
modifications: not checked
B12: HPV16 E1 620 … (peptide)
peptide: LSLHEDEDK
modifications: not checked
B13: HPV18 E6 117 … (peptide)
peptide: KLRHLNEKR
modifications: not checked
B14: HPV18 E1 position 341 peptide … (peptide)
peptide: GDTPEWIQR
modifications: not checked
B15: HPV18 E6 58 … (peptide)
peptide: DSIPHAACH
modifications: not checked
B16: HPV18 E6 131 … (peptide)
peptide: AGHYRGQCH
modifications: not checked
B17: … (HPV16 E7, position 58, 9 amino acids) (peptide)
peptide: CCKCDSTLR
modifications: not checked
B18: … (HPV16 E6, position 39, 9 amino acids) (peptide)
peptide: YCKQQLLRR
modifications: not checked
B19: HPV18 E6 77 … (peptide)
peptide: ELRHYSDSVY
modifications: not checked
B20: … (HPV16 E7, position 68, 10 amino acids) (peptide)
peptide: CVQSTHVDIR
modifications: not checked
B21: … (HPV16 E6, position 139, 10 amino acids) (peptide)
peptide: WTGRCMSCCR
modifications: not checked
B22: … (HPV16 E7, position 14, 10 amino acids) (peptide)
peptide: DLQPETTDLY
modifications: not checked
B23: … (HPV16 E7, position 88, 10 amino acids) (peptide)
peptide: GIVCPICSQK
modifications: not checked
B24: … (HPV16 E7, position 89, 9 amino acids) (peptide)
peptide: IVCPICSQK
modifications: not checked

Each binder was assayed against HLA-A*0201 (human) (assay: competition with 125I-labelled standard peptide for purified HLA-A*0201, gel filtration). Conditions: not given.

| relative binding ratio (IC50 of standard peptide / IC50 of test peptide) | binding affinity ratio (IC50 of the standard peptide / IC50 of the test peptide) | Binder |
| --- | --- | --- |
| 0.0003 |  | B1 |
|  | 0.0057 | B2 |
|  | 0.046 | B3 |
|  | 0.0006 | B4 |
|  | 0.0001 | B5 |
| 0.0048 |  | B6 |
|  | 0.0001 | B7 |
|  | 0.0001 | B8 |
| 0.0043 |  | B9 |

The binders below were run against HLA-A*0301 (human) (assay: competition with 125I-labelled standard peptide for purified HLA-A*0301, gel filtration). Conditions: not given.

| binding affinity ratio (IC50 of standard peptide / IC50 of test peptide) | Binder |
| --- | --- |
| 0.0005 | B10 |
| 0.0086 | B11 |
| 0.0005 | B12 |

What follows are binders tested against HLA-A*1101 (human) (assay: competition with 125I-labelled standard peptide for purified HLA-A*1101, gel filtration). Conditions: not given.

| binding affinity ratio (IC50 of standard peptide / IC50 of test peptide) | binding affinity ratio (IC50 of standard peptide / IC50 of test peptide) (ratio to standard peptide) | relative binding ratio (IC50 of standard peptide / IC50 of test peptide) | Binder |
| --- | --- | --- | --- |
| 0.0005 |  |  | B13 |
| 0.0002 |  |  | B14 |
|  | 0.0089 |  | B10 |
|  | 0.42 |  | B11 |
| 0.0002 |  |  | B15 |
| 0.0002 |  |  | B16 |
|  | 0.0002 |  | B12 |
|  |  | 0.0001 | B17 |
|  |  | 0.0001 | B18 |
| 0.0002 |  |  | B19 |
|  |  | 0.0001 | B20 |
|  |  | 0.0008 | B21 |

Same assay, conditions: remark: other sources report otherwise

| relative binding ratio (IC50 of standard peptide / IC50 of test peptide) | Binder |
| --- | --- |
| 0.0002 | B22 |
| 0.067 | B23 |
| 0.0065 | B24 |
